Test: soluble fraction after stress (log2 fold change); higher = more stays soluble; pooled small domains, quantitative proteomics
Settings: stress: 75 degC
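Also: 20 min heating vs room temperature control held 20 min.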

Row | Sequence | soluble fraction (log2)
1 | HMDIFLPDVKGYDLIPSFRRHLPDIDVIAMTGYNTRALESAVRQQDVLFYMIKPFEASQLKEILEHLVK | -0.16
2 | HMDIKEIIKNRRIELGLTLKEVATAVGVSEGTVSRWESGNITNMKRNKIAALAKTLQIPPTTI | -0.618
3 | HMDIKKHISATLKREMEKRGLNFMEFSTELGIPRTTLQGYLKGTSSPQADSLEELADKLGISPAELVSG | -0.0134
4 | HMDIMLLLYKNIKKRRLEIGMSQEELAQKTGYTSRSSIAKIEKGEVDLQLSKIKLFANALRVSQSELMG | -3.49
5 | HMDIMTVGERVKKLAEKQGISLRELAKKAELSYNTVYSITRRGSERVAPDTISRLANALGVNVNELT | -0.263
6 | HMDINEIILKVASEKKTFKTSDVLEALDNNYTKQHVSALISAMVKKGILVKAGSTAKSTYALPENASLL | -1.26
7 | HMDINIETLNYYVGKAKIPLSELRISVKNIDLFLSGEKQPTFNQLSSIAKKLNIPTGLLLLDESIEV | -3
8 | HMDIPGITAVKPQAAFYMFPKIDVKKFNIVNDEKFALDLLQDKKILIVQGSGFNWKQPDHFRVV | 0.177
9 | HMDIRVAHVDDDMSFGEAFAQARSQVGPGGVFEWHGKLYGTYTAEEWASMSPAERSQYQQAVFN | -0.133
10 | HMDIVLPFSFAKRHGVVLSERQGETELLYLKGLPVRVLAEARRVLRQEFTVRQVEQAVFDKALSESYQN | -0.957
11 | HMDIYLDDINRKILHLLSQGVKTKSLRDYIDLSMSAIEKRKKHLKDLFLIEDGKDETLLSEARKKGF | -1.19
12 | HMDKAGWLPARVRLADYPALKQLAWQVQGVDELTPREALGIYERNWRHLDEAALLPRERNLIDALRLAFG | -0.72
13 | HMDKEQVTFIFRDIDIALRSLDYPIKDIKNTLNIIKSEFSNSKSTELNEQKINFENILKEAISILENND | -0.855
14 | HMDKFKDVGARIREARKVQKLSQADLAERLQISTSHMSDIENGKKNIGLDIFMRLTEALQVSADWLL | -0.437
15 | HMDKFTYVVKKEDEQYQIKDILRHNFTFSSRLRKKLKQNNSIFLNGAETVGWATPKEGDIISVRLP | -0.883
16 | HMDKKEFGKRLKNLRIRNKMSQQAMADSLGYTSRSTINKIEEGINEMSYDKIVRLMELYGLSRPDLGLEPI | -0.439
17 | HMDKKTMFNEALAKLVSYATAHDNLITMEDVKSFFNGLIDDDSQYKLIYDYLSINKIEIKGFT | -0.465
18 | HMDKLEKRILDYLLQKSAIDGSTILKISHREMAMDLGTAREVVTRILKKLETGGFVRQGENYLEILK | -0.518
19 | HMDKPIFTLRENEVLYWASMGKTYAEIATIVGISVRTVKFHMGNVVSKLGVSNARQAIRLGVELDLITPMQ | -2.03
20 | HMDKSFYETFEKIGHGDFDKGLNHVWQHANDGNGTATLLLSKLFLEFGDLDNFEKYLNISAEQSNPVAMKI | -0.357
21 | HMDKSNEVLMNHYRKQEINQAKKRLEEEKMSIIQVLQLTNKEVITTDELLEALYISKEQLLDEIINTTQ | -0.354
22 | HMDKSPVLQLNRDVPAGQQISADDFRTVEIGADGAFRSVPSSDLNAMVGSYAKVRLIAGTLLAREALQSG | 0.0261
23 | HMDKSRPVLRVGDSGDWVSKLQTALLEFGYRVAVDGVFGEHTKSAVVHFQNGRRLIADGVVGNLTWDALL | -2.4
24 | HMDKWFPVSSDHKVQVGDYLRTADGLVKVEATHNEYGTFYGKIITAIHDDVVKGETYEYRIDDVQVLA | -0.00685
25 | HMDLAPLQTVDIAINYAKAAELAAILKSSEGGILSDRGGVTVDERTNTLLIRDTLESIDEARKTI | 0.224
26 | HMDLATQHAAKVNAAILAARRFEREGSWRQVAAKYSEALQLMPGNEQASRGYQQAMAMLDERD | -0.0717

Row | Sequence | soluble fraction (log2)
27 | HMDLDSGVAVLRTLMSQHNLQTDDFQNEIGGKSMVSMILNGTRKLSKNHIQALSGRFNLSPALFF | -0.819
28 | HMDLEELSNKMNNVFESLSSDLRDIIIMSDIEGLSYEEISHKINIPIGTVRSRLHRARDLMVRVIKEN | -0.517
29 | HMDLGEQIIEKLRAAGGFLAITDKSPAEEIYELFATSKKNYKKAVGGLYKKGLLVIEDDGIRLTPAGR | -0.503
30 | HMDLHERISSVLLGTGKSNDELAQILGVNKNTISAYKNKHGDLKGIVLEGIVKHFDINPVWLLTGSGTR | -0.577
31 | HMDLKSLEFAIVENVQRHDLNPLEEAQGYKRLIDEFSYDQDKVSKFIGKSRSYITNSLRLLNLPLEVLEF | 0.125
32 | HMDLKTNSQLINELEKKIKRPFDREIKNYLNKNLSTDRMISNNEIDKIILFYSGNNEIPNIEKISLILNDN | -0.0499
33 | HMDLPATVPNLEGLTEVTARNKLTVAGLSLGEVKEVESDKEKGTVVGQSIAYGKRVTKGTKVDIEISSGK | 0.194
34 | HMDLPDTLSMPNALKVLEDNGFPTSKAKLYKMTSQEQIPFMKYGNKLVFSRKALIEWAHKQLV | -1.94
35 | HMDLPREKRIEIGLTYIYGIGLKTSQKILAATGIDPNTRVKDLDETTVSKLREYIDHNYRVEGELRS | -1.32
36 | HMDLSLQTFNELKTELTNNKITIDQFSEKINEFDITSDIFEISRELFLDDTLSLEDYLVVIENVLIN | -0.327
37 | HMDLSQTVQAKALARVNVREGAGTHFKSLGKLKKGELLPVFRVGNSWASIWWKGRVAYVHTDYLRFESA | -1.98
38 | HMDLTKLFDHDSEYGKSYVFGKITDEMIARAEQTLGYRMPASYIELLKVQNGGMISDELDESWLTTIYGIG | -0.359
39 | HMDMAYEVVKAFHDLQDYKDVKGGKVYHHYDVGDTYPRQGLDPAPDETRIEELLSSGNAQGVPLIAEV | 0.112
40 | HMDMNVQNYRGLSLDRAKKLISDLGLKYEVVGTGDSVVKQVPSSGSRMSKENGRIILYTENVEDA | -0.0826
41 | HMDMPLIGTAIRGWGIISPAQQETLIKMSILTVEDLAAINDEGIKRIGMGGLDLKNKAKAWLLQLK | -2.2
42 | HMDMRLADLIGRDGITITFMRPSGKVEIDGEIYDAVSDVGLIDKNEEVEVIKFENAQLVVTKKNKN | 0.102
43 | HMDMSVDQFNQGIRGSELYQQFIHGRGLQQPDGKTREWTDADRNAWRRTLEASGVRIPDGMKIDNAGNLNE | 0.375
44 | HMDNEIIEEEKITTLMITHNMRDAIKYGNRLIMLNEGRVIFDISGEEKKNLTVQELLEKFEK | 0.242
45 | HMDNEIMYPIQINGKVRAELFVSTERAMDKQYVLEQAKANEKIQGYLEGNRLVKEIFVPKRIVNLVIAP | -0.576
46 | HMDNIEIGNRIREIRIKKNISVFELAYRTKTSQSHIYQIEGGSQNMSIELLFKIADTLETDPNTILGV | -3.97
47 | HMDNIPAHIKAKIINYVNRNYPGAIIKDIERKSNGRYEAEIVYNNREYDLLFDAQGNFISASLDDK | -0.0583
48 | HMDNNFIQSLYPIAIGISKNQLDPWDLINGWVEYYLKNKEKYINHPNLKAVAVLKMKGLLIDHFRKS | -3.55
49 | HMDNPKGNLQEAVQAKGNEPIEYRVLNVDGPDHAREFKIAVFIGGKRKGTGVGNSKKKAEEIAAEKAFKRM | 0.109
50 | HMDNPVPVIITDQNFQPQLWKNVGVPTDTLFHELSAANQRKLENLMKTMIQTPLTDNGKISGYAFYSK | -0.00686
51 | HMDNREKLRQEFLENLKELQEQNDIPQQEIDRVILDYDGVAEFLEDEGALKRYGGQLVDMTAYRAGAIPS | 0.0771
52 | HMDNRLFKMLYYLLDKERATAPELAAEFEVSTRTIYRDVEALSSAGIPIYAEPGRNGGIYLLQD | -2.3

Row | Sequence | soluble fraction (log2)
53 | HMDNTSNVEKTLRFIRQRGKVSRKEVETLLGSSKFPAISALNELLAENKIVKTGSGPAVRYSVS | -0.353
54 | HMDNVINDGMQVRFTGNVDINGTPLKIYDRIYTAEGISDDTVVLMLGNDVYARVYLSDVVPAD | -0.975
55 | HMDNWLSGLAVEADRMILTQPGEVFDRLSRAFEATLIRRALASTGGRRIEAAHLLGIGRNTITRKIQDLGL | -2.62
56 | HMDPDARQDAEVWLLDFLSAGPRTAQEIFTAARVEGHTRVTVKRAKATAGIQSVKQDFDGPWVWVLPGSG | -0.455
57 | HMDPFAYEVKVTDLAAGSSEIRTVYTEQGSFNIPSGMSGNLKIQVRSASMYDEVEPSDWYTIGEEDIN | 0.0347
58 | HMDPLASLTPREREVLSLMAQGLSNLAVAERLVVSAGAVEKHISSIFTKLDLAPSEHEHRRVLAVLRYVAG | -2.86
59 | HMDPPISNDARNAINAKLMKFSELHPNEMKKLVEAYKKEFKVSKISPITLARQGEFLSHAISKIDDT | -0.0671
60 | HMDPQDGTVKFFNGARGFGFITPDGGGADVFVHVSAVERAGLTQLVEGQRVNFQTLPDTKGKGPKAVNLKV | 0.106
61 | HMDPSDQLYTVPPSAEGLRLDLFLVQHVPHMTRALATQLTGAGQVRVNGRRAKKGDRLPSGAQVRLEQAP | -0.85
62 | HMDPSHGESRENLDIMRIIDETHLEYPSWGYRKMTDHLRANHGYTINRKRVRRLMRLMDIIALFPG | -1.33
63 | HMDPSVTGLLTRLGISPQTAQELAGQYEEPYILEKIAIVEAHPEYVKNAAGFVITALQEDWKD | -0.591
64 | HMDPTHDMHFLVKDQVTGQPLPNMPYRLQLDNGQTLTGRTDALGMTEKISGHSPHIASIEVPY | 0.117
65 | HMDPVILDINSVKALLGISNKADFMAELSRLVVTEGDKKMIIPLAKEVGIDNVAVYKRNEIENISNYK | -0.129
66 | HMDQAEDVLSIPVDALMRGNQVYIKDDTVTEQQGPIPAGFKAVEVETGLISDSYVEIKSGLSEGDTVYVAE | 0.129
67 | HMDQESFGYFHVKYADVKQVADLVQKLNIPAVTWADERTRRLVALGSPATLQRISQVLNMVDL | -0.781
68 | HMDQHPYGEDSFRGDNPPAGFDIKGNEDSMKFHEPSSPWYGRTIAEVWFRSAAAAEAAGFVNAV | -0.0403
69 | HMDQINNDLRKLIEFLPEDQKTVLKMRHFQEMSFKEIAKATGVSINTALGRMRYALINLRKLIEENEI | -2.06
70 | HMDQPLIEPLSERELEVLSLIAAGYSNAEIAERLVIAVGTVKRHINNLYGKLGAGSRTQALAIAREIGLM | -0.107
71 | HMDQTKYDAIITEAKKLTAEGQYKESEEKLATIPVSDLGKPHYSIVKETVEKLNNQNNEGLKRQEEVAVE | -0.0329
72 | HMDQVLHQLVEVLRRSEIRISPAETLDAFKVLRNVGIDNKSLLREALALTLAKSIHEKIIFYETFDEFFT | -1.46
73 | HMDRADIDAVDAEWVRATMERLGLRAKHIESHTGISKSTLSILLNGHRPLTRWHKIAFYYLFKHIEF | -2.76
74 | HMDRDQNVEEGQRSLKSEMGRFGLLIANMDDLAERVNYGNAEDMYAAIGAGDLRLMQVVHAAEEMLG | 0.097
75 | HMDRENNITAGREILEKELSRLALNMKMVNLQDYAARFNVKHSDDILAGIGAGDIRPAHIVNAIAEKLT | -0.0151
76 | HMDREQLELYVGEVRVLQVGELRRIAIGNGKVLQASALDRGQLLLIPEAPGQSVLYLWTRDGTERHLSISV | 0.0104

Source: the domain aggregation screens of Martell et al. (2025)
